From ChEMBL document CHEMBL1146070, “Investigating the role of stereochemistry in the activity of anticancer acylfulvenes: synthesis, reductase-mediated bioactivation, and cellular toxicity” (J Med Chem, 2006) come the findings set out here.

Substrate in data set [1]: CC1=C(CO)C2=C(C)C3(CC3)[C@@](C)(O)C(=O)C2=C1
In words: (§1) Affinity towards rat NADP-dependent AOR, leukotriene B4 12-hydroxydehydrogenase.

Substrate in data set [2]: CC1=C(CO)C2=C(C)C3(CC3)[C@](C)(O)C(=O)C2=C1
The description is as §1.

Substrate in data set [3]: CC1=CC2=C(C)C3(CC3)[C@@](C)(O)C(=O)C2=C1
The data set is described as §1.

Substrate in data set [4]: CC1=CC2=C(C)C3(CC3)[C@](C)(O)C(=O)C2=C1
The data set is described as §1.

B1: Prostaglandin reductase 1 (Rattus norvegicus), P97584 (protein)
chain: MVQAKTWTLKKHFEGFPTDSNFELRTTELPPLNNGEVLLEALFLSVDPYMRVAAKKLKEGDSMMGEQVARVVESKNSAFPTGTIVVALLGWTSHSISDGNGLRKLPAEWPDKLPLSLALGTVGMPGLTAYFGLLDICGLKGGETVLVNAAAGAVGSVVGQIAKLKGCKVVGTAGSDEKVAYLKKLGFDVAFNYKTVKSLEEALRTASPDGYDCYFDNVGGEFSNTVILQMKTFGRIAICGAISQYNRTGPCPPGPSPEVIIYQQLRMEGFIVTRWQGEVRQKALTDLMNWVSEGKIRYHEYITEGFEKMPAAFMGMLKGDNLGKTIVKA
As to B1, the Km in data set [1] stood at 213 µM; in data set [2] it was 243 µM; in data set [3], 538 µM; in data set [4] it was 465 µM.
